# In patent US20240018513A1, “SYNTHETIC INTRONS FOR TARGETED GENE EXPRESSION” (FRED HUTCHINSON CANCER CENTER, priority 2020, published 2024):
# B1: intron_26: 150 nt MTERFD3 intron 1-derived synthetic intron, deletion 25to125; SEQ ID NO 58/66 (nucleic acid)
# DNA 1: GTGAGTCGCCCCCTTCCTCTGCTCCGAGAGGGAAATGGGAATTAGGGTGGTGGCAGAGCCCAAAGAGGCCTTGTAGGCCATGGTAAGGCATTTCTATGTTTTATTTTACTTTGTCTTTATCCTAAAATGCCATTGGCAAGTTTATTGCAG
# DNA 2: B1 DNA 1
# How the values were obtained:
# Assay type in all cases: cell-based
# [1] = tested on: SF3B1-mutant K562 cells; assay: Mini-screen: pooled synthetic intron mini-library in HSV-TK, GCV treatment, full-length intron sequencing from genomic DNA; details: genotype K700E (SF3B1+/K700E) K562; GCV 100 ug/mL; day 6; vector hPGK-PuroR-P2A-HSV-TK
# Source text: (§1) Therefore, a massively parallel splicing assay was developed to map and functionally interrogate key sequence features within the synthetic intron. First, a pilot mini-library of eight synthetic introns was synthesized, seven of which were much shorter (lengths of 100-158 nt) than the parent synthetic intron (synMTERFD3i1-250), and each with one or more perturbations to potentially critical features (FIG. 2E). This mini-library was cloned into HSV-TK, introduced into WT or SF3B1-mutant K562 cells with a lentiviral vector at a low multiplicity of infection, and treated with GCV. Relative depletion of each construct was measured by high-throughput sequencing of the entire introns from genomic DNA after six days of treatment (TABLE 1).
# (§2) Each synthetic intron used in the mini-library was ordered individually as a gBlock (Integrated DNA Technologies), consisting of the desired intron flanked by homology arms for cloning (5′ arm: […] (SEQ ID NO:158); 3′ arm: […] (SEQ ID NO:159; TABLE 3). The gBlocks were then mixed in equal proportions before being cloned into hPGK-PuroR-P2A-HSV-TK using a previously published strategy for pooled cloning (Thomas, J. D. et al. RNA isoform screens uncover the essentiality and tumor-suppressor activity of ultraconserved poison exons. Nature genetics 52, 84-94 (2020), incorporated herein by reference in its entirety). This intron mix was then amplified using NEBNext High Fidelity Ready Mix (New England Biolabs) and purified using 1.8×AMPure XP SPRI beads (Beckman Coulter). The backbone for the library was amplified using Q5 polymerase (New England Biolabs). The library was transformed and amplified using Endura ElectroCompetent Cells (Lucigen, 60242-2) and large LB plates. The library was maxiprepped using a Macherey-Nagel MaxiPrep kit (Thermo Fisher Scientific, Cat 740414.10).
# (§3) WT or SF3B1-mutant K562 cells were infected with lentivirus encoding the mini-library at an MOI of 0.3 and untreated or treated with GCV (100 ug/mL) for 6 days. Genomic DNA was collected at day 6 and the resulting Illumina libraries were sequenced with 2×150 bp reads (Illumina MiSeq). Depletion/enrichment of each construct was estimated as follows. For each sample, reads were normalized to the total reads mapped. The relative fraction of reads mapping to each intron was then estimated by dividing the numbers of normalized reads mapped to an intron by the total reads mapped in the sample. The standard deviation was calculated using the sample proportion P for each intron (σ=sqrt [P(1−P)/n]). A fold-change was calculated for each intron by dividing the proportion of the intron in the treated GCV samples by the fraction of the intron in the untreated samples. Error propagation was used to estimate the standard deviation. The final relative fold-changes were computed by normalizing fold-changes such that the fold-change of synMTERFD3i1-250 in the pilot screen was identical to the experimentally measured fold-change in a single-construct experiment (FIG. 2C, 100 μg/mL of GCV).
# [2] = tested on: WT K562 cells; assay: as above; details: genotype WT (SF3B1+/+) K562; GCV 100 ug/mL; day 6; vector hPGK-PuroR-P2A-HSV-TK
# Source text: as §1, §2, §3
# [3] = tested on: MEL202 cells (SF3B1R625G); assay: RT-PCR of synthetic intron excision in uveal melanoma cells; details: endogenous SF3B1R625G
# Source text: FIGS. 9A-9H: Branchpoint manipulation and combinatorial 3′ss mutations enhance SF3B1 mutation-dependent splicing. (9A) Diagrams of modifications in each intron relative to synMTERFD3i1-150. Deletions are specified as open intervals. Branchpoints were inserted in between the indicated positions. (9B) Relative viability of K562 cells expressing the indicated constructs, measured in the full screen. Relative viability estimated as fold-change in representation of each construct, measured by full-length intron sequencing from genomic DNA, at day 8 for GCV-treated relative to untreated samples. GCV concentration, 100 ug/mL. Vector is hPGK-PuroR-P2A-HSV-TK. Data represented as mean±s.d. Standard deviation was estimated as sample proportion standard deviation. (9C) Relative viability of K562 cells expressing the indicated constructs, measured in cells expressing each construct individually. […] Relative viability measured by ATP after 11 days of treatment and normalized to PBS-treated samples. […]
# Total RNA was extracted using Direct-zol RNA Miniprep (Zymo Research). cDNA was synthesized using Superscript IV Reverse Transcriptase (Thermo Fisher Scientific) using the manufacturer's protocol. Amplicons were analyzed using agarose gel electrophoresis and quantified using ImageJ (Fiji). […]
molecule,measurement,setting,value
B1,fold-change (estimated fold-change in intron abundance in gDNA),[1],0.282
same,fold-change (estimated fold-change in intron abundance in gDNA),[2],1.034
same,excision / splicing of the synthetic intron (RT-PCR),[3],"excised in the context of endogenous SF3B1R625G, although less efficiently than for SF3B1K700E"
